Reference: IntAct's records for PubMed 20498086

B1: Nuclear pore complex protein Nup98-Nup96 (Homo sapiens), P52948 (parent)
chain: MFNKSFGTPFGGGTGGFGTTSTFGQNTGFGTTSGGAFGTSAFGSSNNTGGLFGNSQTKPGGLFGTSSFSQPATSTSTGFGFGTSTGTANTLFGTASTGTSLFSSQNNAFAQNKPTGFGNFGTSTSSGGLFGTTNTTSNPFGSTSGSLFGPSSFTAAPTGTTIKFNPPTGTDTMVKAGVSTNISTKHQCITAMKEYESKSLEELRLEDYQANRKGPQNQVGAGTTTGLFGSSPATSSATGLFSSSTTNSGFAYGQNKTAFGTSTTGFGTNPGGLFGQQNQQTTSLFSKPFGQATTTQNTGFSFGNTSTIGQPSTNTMGLFGVTQASQPGGLFGTATNTSTGTAFGTGTGLFGQTNTGFGAVGSTLFGNNKLTTFGSSTTSAPSFGTTSGGLFGNKPTLTLGTNTNTSNFGFGTNTSGNSIFGSKPAPGTLGTGLGAGFGTALGAGQASLFGNNQPKIGGPLGTGAFGAPGFNTTTATLGFGAPQAPVALTDPNASAAQQAVLQQHINSLTYSPFGDSPLFRNPMSDPKKKEERLKPTNPAAQKALTTPTHYKLTPRPATRVRPKALQTTGTAKSHLFDGLDDDEPSLANGAFMPKKSIKKLVLKNLNNSNLFSPVNRDSENLASPSEYPENGERFSFLSKPVDENHQQDGDEDSLVSHFYTNPIAKPIPQTPESAGNKHSNSNSVDDTIVALNMRAALRNGLEGSSEETSFHDESLQDDREEIENNSYHMHPAGIILTKVGYYTIPSMDDLAKITNEKGECIVSDFTIGRKGYGSIYFEGDVNLTNLNLDDIVHIRRKEVVVYLDDNQKPPVGEGLNRKAEVTLDGVWPTDKTSRCLIKSPDRLADINYEGRLEAVSRKQGAQFKEYRPETGSWVFKVSHFSKYGLQDSDEEEEEHPSKTSTKKLKTAPLPPASQTTPLQMALNGKPAPPPQSQSPEVEQLGRVVELDSDMVDITQEPVLDTMLEESMPEDQEPVSASTHIASSLGINPHVLQIMKASLLTDEEDVDMALDQRFSRLPSKADTSQEICSPRLPISASHSSKTRSLVGGLLQSKFTSGAFLSPSVSVQECRTPRAASLMNIPSTSSWSVPPPLTSVFTMPSPAPEVPLKTVGTRRQLGLVPREKSVTYGKGKLLMDMALFMGRSFRVGWGPNWTLANSGEQLNGSHELENHQIADSMEFGFLPNPVAVKPLTESPFKVHLEKLSLRQRKPDEDMKLYQTPLELKLKHSTVHVDELCPLIVPNLGVAVIHDYADWVKEASGDLPEAQIVKHWSLTWTLCEALWGHLKELDSQLNEPREYIQILERRRAFSRWLSCTATPQIEEEVSLTQKNSPVEAVFSYLTGKRISEACSLAQQSGDHRLALLLSQFVGSQSVRELLTMQLVDWHQLQADSFIQDERLRIFALLAGKPVWQLSEKKQINVCSQLDWKRSLAIHLWYLLPPTASISRALSMYEEAFQNTSDSDRYACSPLPSYLEGSGCVIAEEQNSQTPLRDVCFHLLKLYSDRHYDLNQLLEPRSITADPLDYRLSWHLWEVLRALNYTHLSAQCEGVLQASYAGQLESEGLWEWAIFVLLHIDNSGIREKAVRELLTRHCQLLETPESWAKETFLTQKLRVPAKWIHEAKAVRAHMESDKHLEALCLFKAEHWNRCHKLIIRHLASDAIINENYDYLKGFLEDLAPPERSSLIQDWETSGLVYLDYIRVIEMLRHIQQVDCSGNDLEQLHIKVTSLCSRIEQIQCYSAKDRLAQSDMAKRVANLLRVVLSLHHPPDRTSDSTPDPQRVPLRLLAPHIGRLPMPEDYAMDELRSLTQSYLRELAVGSL
partner: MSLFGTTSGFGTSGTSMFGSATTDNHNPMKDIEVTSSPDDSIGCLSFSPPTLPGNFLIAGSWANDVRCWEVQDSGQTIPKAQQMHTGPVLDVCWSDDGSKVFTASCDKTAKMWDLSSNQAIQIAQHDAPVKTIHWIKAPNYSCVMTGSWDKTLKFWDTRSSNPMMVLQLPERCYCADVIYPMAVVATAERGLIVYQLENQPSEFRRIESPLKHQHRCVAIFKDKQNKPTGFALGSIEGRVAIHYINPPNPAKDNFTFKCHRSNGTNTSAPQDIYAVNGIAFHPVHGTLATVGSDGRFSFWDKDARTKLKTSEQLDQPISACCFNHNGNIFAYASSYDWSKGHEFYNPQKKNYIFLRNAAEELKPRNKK

Variants of: B1
Conditions: with rae1l_human RAE1, P78406

Row | Variant | effect of a mutation on the interaction
1 | E201K;E202K | disrupting interaction
